{"source": "the DeepSol protein solubility set"}
{"assay": "soluble on expression in E. coli; label from the status in PepcDB or PDB records"}
{"sequence": "MEGERMNAFPSTMMDEELNLWDFLERAAALFGRKEVVSRLHTGEVHRTTYAEVYQRARRLMGGLRALGVGVGDRVATLGFNHFRHLEAYFAVPGMGAVLHTANPRLSPKEIAYILNHAEDKVLLFDPNLLPLVEAIRGELKTVQHFVVMDEKAPEGYLAYEEALGEEADPVRVPERAACGMAYTTGTTGLPKGVVYSHRALVLHSLAASLVDGTALSEKDVVLPVVPMFHVNAWCLPYAATLVGAKQVLPGPRLDPASLVELFDGEGVTFTAGVPTVWLALADYLESTGHRLKTLRRLVVGGSAAPRSLIARFERMGVEVRQGYGLTETSPVVVQNFVKSHLESLSEEEKLTLKAKTGLPIPLVRLRVADEEGRPVPKDGKALGEVQLKGPWITGGYYGNEEATRSALTPDGFFRTGDIAVWDEEGYVEIKDRLKDLIKSGGEWISSVDLENALMGHPKVKEAAVVAIPHPKWQERPLAVVVPRGEKPTPEELNEHLLKAGFAKWQLPDAYVFAEEIPRTSAGKFLKRALREQYKNYYGGA", "soluble on expression in E. coli": "soluble"}
{"sequence": "SEQHAQGADAVVDLNNELKTRREKLANLREQGIAFPNDFRRDHTSDQLHAEFDGKENEELEALNIEVAVAGRMMTRRIMGKASFVTLQDVGGRIQLYVARDDLPEGVYNEQFKKWDLGDILGAKGKLFKTKTGELSIHCTELRLLTKALRPLPDKFHGLQDQEARYRQRYLDLISNDESRNTFKVRSQILSGIRQFMVNRGFMEVETPMMQVIPGGAAARPFITHHNALDLDMYLRIAPELYLKRLVVGGFERVFEINRNFRNEGISVRHNPEFTMMELYMAYADYKDLIELTESLFRTLAQDILGKTEVTYGDVTLDFGKPFEKLTMREAIKKYRPETDMADLDNFDSAKAIAESIGIHVEKSWGLGRIVTEIFEEVAEAHLIQPTFITEYPAEVSPLARRNDVNPEITDRFEFFIGGREIGNGFSELNDAEDQAQRFLDQVAAKDAGDDEAMFYDEDYVTALEHGLPPTAGLGIGIDRMVMLFTNSHTIRDVILFPAMRPVK", "soluble on expression in E. coli": "soluble"}
{"sequence": "MGSSHHHHHHSSGLVPRGSHMKNYARISCTSRYVPENCVTNHQLSEMMDTSDEWIHSRTGISERRIVTQENTSDLCHQVAKQLLEKSGKQASEIDFILVATVTPDFNMPSVACQVQGAIGATEAFAFDISAACSGFVYALSMAEKLVLSGRYQTGLVIGGETFSKMLDWTDRSTAVLFGDGAAGVLIEAAETPHFLNEKLQADGQRWAALTSGYTINESPFYQGHKQASKTLQMEGRSIFDFAIKDVSQNILSLVTDETVDYLLLHQANVRIIDKIARKTKISREKFLTNMDKYGNTSAASIPILLDEAVENGTLILGSQQRVVLTGFGGGLTWGSLLLTLEF", "soluble on expression in E. coli": "soluble"}
{"sequence": "MKKLAIAGALLLLAGCAEVENYNNVVKTPAPDWLAGYWQTKGPQRALVSPEAIGSLIVTKEGDTLDCRQWQRVIAVPGKLTLMSDDLTNVTVKRELYEVERDGNTIEYDGMTMERVDRPTAECAAALDKAPLPTPLPLEHHHHHH", "soluble on expression in E. coli": "soluble"}
{"sequence": "TIKRMECFDISHTMGSQTVASCVVFDENGPLKSDYRRFNIEGITGGDDYAGMEQALVKRYDKPLPIEKIPDIIFIDGGKGQLNRALQVFEKLTVAWDKHKPLLIGVAKGAERKAGLETLIIGRLKKEIHLPIDSPALHLIQHIRDESHHHAISGHRKKRQKA", "soluble on expression in E. coli": "not soluble"}
{"sequence": "MSSLDNAPLLELDVQEWVNHEGLSNEDLRGKVVVVEVFQMLCPGCVNHGVPQAQKIHRMIDESQVQVIGLHSVFEHHDVMTPEALKVFIDEFGIKFPVAVDMPREGQRIPSTMKKYRLEGTPSIILADRKGRIRQVQFGQVDDFVLGLLLGSLLSETDET", "soluble on expression in E. coli": "soluble"}
{"sequence": "MSSAKLFTPLKVGAITATNRVFMAPLTRLRSIEPGDIPTPLMAEYYRQRASAGLIISEATQISAQAKGYAGAPGLHSDEQIAAWKKITQGVHAQGGHMAVQLWHTGRISHASLQPGGQAPVAPSAINAGTRTSLRDENGQAIRVETSTPRALDTHEIPGIVNDFRQAIANAREAGFDLVELHSAHGYLLHQFLSPSSNHRTDRYGGGVENRARLVLEVVDAGIKEWGADRIGIRLSPVGTFQNVDNGPNEEADALYLIEALGKRGIAYLHMSEPDWAGGEPYSDAFREKVRARFHGPIIGAGAYTPEKAEDLIEKGLIDAVAFGRDYIANPDLVARLQRKAELNPQRPESFYGGGAEGYTDYPTL", "soluble on expression in E. coli": "not soluble"}
{"sequence": "SNAENNQTTTTHSKVISHVFCTGTAKLGSVGPPIGLVDIGVSEVAYIFRVSLPGIEKNQDKIKCEIQREGRVCIQGVIPEIAIPSDTGCLYRMQVQQLCPPGPFSITFNLPGQVDPRLFSPNFRSDGIFEVVVVKLGVRIPTS", "soluble on expression in E. coli": "soluble"}
{"sequence": "MTETYVLAESPEFYQDNVTDYTGQISSSDITNIQAAIDDVKASEQKVIFVVFLSSFDGVDPETWTQQALQANGGGNVLIYALAPEERQYGIQGGTQWTDAELDAANNAAFQALSQEDWAGSALALAESVGSSSSSSSGSSSLEHHHHHH", "soluble on expression in E. coli": "soluble"}
{"sequence": "MGSDKIHHHHHHMARSWLDYKTQAWVQWCPGCGDFGILNSIYRAVSELGIDPENLAVVGGIGCSGRTTYYVKGSNFHALHGRAIPVATGVKLANPHLNVIVAGGDGDLMGIGGGHFVALGRRNLNITVLLFDNAVYGLTKGQAAPTLPAWVKTKALSMPNIHDNINPVLLAFAAGYTFIARGYAYHTQQLKELIKTAVRHRGAALVDILQPCPTYNNIMTNKWYEERIYYVDQEEGYDPIIRTPEEFQKKAPAIAAKLMEFGDRIPLGILYWNQTRESFEERLEKIMPGYMSAPPATRRIELEGKPFLHPFDIFKDRLVTP", "soluble on expression in E. coli": "not soluble"}
{"sequence": "RIAISNSNRTRSVPSLTTIWSISPTPNCSIYETQDANLFLCLTKNGAHVLGTITIKGLKGALREMHDNALSLKLPFDNQGNLLNCALESSTWRYQETNAVASNALTFMPNSTVYPRNKTAHPGNMLIQISPNITFSVVYNEINSGYAFTFKWSAEPGKPFHPPTAVFCYITEQGSHHHHHH", "soluble on expression in E. coli": "soluble"}
{"sequence": "MLPKRNSGDNELYTNREKRKKMTSYIADSAVFIMGNCGVDSSLLITVPSVADELKSRDSMLRFDLAKEEGLRVEWPEPEMVKEVRKKAEQTRDSEELSKTDLEILAKALEHRETAVLLTDDYAVQNVAVQLGIQVKPIAQKKIKDVLIWQKQCTGCKKTFDKGDECPICGSPLKKKRKRKLKGKGYRESLEHHHHHH", "soluble on expression in E. coli": "not soluble"}
{"sequence": "MSHSAKKALLPLLAVATLAGLAGCATETSTALPVQQVESVNRPYSGVRSPIAVGKFDNRSSYMRGIFSDGVDRLGGQAKTILITHLQQTNRFNVLDRDNMSEIQQEAAIKGQAQRLKGADYVVTGDVTEFGRKEVGDRQLFGILGRGKSQIAYAKVALNIVNISTSEVVYSTQGAGEYALSNREVIGFGGTASYDSTLNGKVLDLAMREAVNKLVNAVDSGAWKPQNQ", "soluble on expression in E. coli": "not soluble"}
{"sequence": "MTKKKLLKALAVAAIATSLVACSDSSSNDKTLTTAVSSGSSVATTTVAAPADNTNVTANASYIIGYGMGSSIATDKNIKTFNLNNDKVMAGFEDAINAKKPAIPLEDIANNMNTLRDKMQQQMNQKAVTSFLSVQDGIYNSDLTPKSDIKNPDVVVYEFFDYQCMYCSKLAPEIEKIMKDNSDVQVVFAEFPIFGQKLPASEYAAEVSTAIYKLYGADAYVKYHNGIFATGEDEGSLKNATVDNVAKQAGADMTKVNKAIQDDKIADHLKDMLKMGFGQLGIQGTPFLVIAPAKNATVANTTIIGGYTTADGIQAAINKAKSTATTTSTSNNGQTDTKQAQNDIATVTAEAQATSGSTEQLAQPR", "soluble on expression in E. coli": "not soluble"}
{"sequence": "MNLITDETLVEPNLPTFEELTRVHDRKYLKSVRNPIKAAQIVEIPFVGCLPPCIIESKLLHPLRLQAGGTVLAANLALKHGWAINVGGGFHHASHSGGGGFCFYADITMAIFDLFDKKAIANAIVVDLDAHQVLEKTFERI", "soluble on expression in E. coli": "not soluble"}
{"sequence": "MGSSHHHHHHGKTIFVIVPTNEEQVAFLEALAKQDELNFDWQNPPTEPGQPVVILIPSDMVEWFLEMLKAKGIPFTVYVEEGGSENLYFQGGGGGGAQCVRRLVLAATLAAAVALLLCTSSAPVARAAGTGDFTAAQRTNTLAVLQAFGRAIPKLGEKWAGNDFCSWEAVLCNAPDVYVSGISPTYAGTLPEMPVNVDYRHVVIKQLDFSEMGPGLSGTLPASWHSMTSLESLSIEKCESISGSVPPEWGSMTSLSVLNLRGTGISGTLPPQWSGMSKARSLQLQDCDLSGSLPSSWSAIPMLASVSLKGNKFCGVCRTRGIRRLVLLWTSRTSTRAATAWLLRTAQRPPLSPPPRQRPPRTSLTFPLRRGPRLSRLPQPALRHRLNPQPPLRHRLNPRPLLPQQTRRLLHQRRSARWMGVRCARGTPLRGARGAVRTTS", "soluble on expression in E. coli": "not soluble"}
